Consider one molecule from US20090041768A1 (published 2009).

In this assay the target is FcRn. Put plainly: Biacore FcRn binding. (In general: In SPR one partner is held on a chip, and binding of the other changes the refractive index at the surface.)
Sequence of FcRn (chain, as listed by the source, chain 1 of 2): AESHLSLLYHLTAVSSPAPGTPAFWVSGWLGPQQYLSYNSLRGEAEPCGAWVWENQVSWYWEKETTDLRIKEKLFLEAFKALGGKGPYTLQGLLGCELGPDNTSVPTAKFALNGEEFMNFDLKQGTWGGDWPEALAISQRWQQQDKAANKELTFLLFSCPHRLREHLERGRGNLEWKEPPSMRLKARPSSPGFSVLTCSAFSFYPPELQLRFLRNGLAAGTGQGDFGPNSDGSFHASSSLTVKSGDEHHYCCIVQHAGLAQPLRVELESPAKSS
Sequence of FcRn (chain, as listed by the source, chain 2 of 2): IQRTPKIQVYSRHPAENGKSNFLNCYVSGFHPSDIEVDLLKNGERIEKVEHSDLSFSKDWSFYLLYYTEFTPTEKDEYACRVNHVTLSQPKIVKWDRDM

B1: Fc-loop TN8-19-07 (clone #6951) (Fc fusion)
chain: MDKTHTCPPCPAPELLGGPSVFLFPPKPKDTLMISRTPEVTCVVVDVSHEDPEVKFNWYVDGVEVHNAKTKPREEQYNSTYRVVSVLTVLHQDWLNGKEYKCKVSNKALPAPIEKTISKAKGQPREPQVYTLPPSRDELGGLADHGQCIRWPWMCPPEGWEGGTKNQVSLTCLVKGFYPSDIAVEWESNGQPENNYKTTPPVLDSDGSFFLYSKLTVDKSRWQQGNVFSCSVMHEALHNHYTQKSLSLSPGK
notes: also called Fc-loop-myo7; myostatin loop peptibody
A word on the EC50: it is the concentration giving half of the maximal effect. A lower EC50 goes with an effect from little substance. The molecule B1 came in with an EC50 of around 680 nM.
